# Source: US11981935B2, “7β-hydroxysteroid dehydrogenase mutants and process for the preparation of ursodeoxycholic acid” (PharmaZell GmbH, priority 2010, dated 2024)
# “Also recorded” adds a separate entry of the source.
# B1: FDH: formate dehydrogenase from Mycobacterium vaccae N10, mutant D221G, utilizes both NAD+ and NADP+ (protein)
# chain: MAKVLCVLYDDPVDGYPKTYARDDLPKIDHYPGGQILPTPKAIDFTPGQLLGSVSGELGLREYLESNGHTLVVTSDKDGPDSVFERELVDADVVISQPFWPAYLTPERIAKAKNLKLALTAGIGSDHVDLQSAIDRNVTVAEVTYCNSISVAEHVVMMILSLVRNYLPSHEWARKGGWNIADCVSHAYDLEAMHVGTVAAGRIGLAVLRRLAPFDVHLHYTGRHRLPESVEKELNLTWHATREDMYPVCDVVTLNCPLHPETEHMINDETLKLFKRGAYIVNTARGKLCDRDAVARALESGRLAGYAGDVWFPQPAPKDHPWRTMPYNGMTPHISGTTLTAQARYAAGTREILECFFEGRPIRDEYLIVQGGALAGTGAHSYSKGNATGGSEEAAKFKKAV
# modifications: CDS (1)..(1203)
# B2: 7β-HSDH from Collinsella aerofaciens DSM 3979 (ATCC 25986), wild type, SEQ ID NO:2 (Collinsella aerofaciens ATCC 25986) (protein)
# chain: MNLREKYGEWGLILGATEGVGKAFCEKIAAGGMNVVMVGRREEKLNVLAGEIRETYGVETKVVRADFSQPGAAETVFAATEGLDMGFMSYVACLHSFGKIQDTPWEKHEAMINVNVVTFLKCFHHYMRIFAAQDRGAVINVSSMTGISSSPWNGQYGAGKAFILKMTEAVACECEGTGVDVEVITLGTTLTPSLLSNLPGGPQGEAVMKIALTPEECVDEAFEKLGKELSVIAGQRNKDSVHDWKANHTEDEYIRYMGSFYRD
# B3: G39D R40I: 7β-HSDH double mutant G39D/R40I, SEQ ID NO:39 (protein)
# chain: MNLREKYGEWGLILGATEGVGKAFCEKIAAGGMNVVMVDIREEKLNVLAGEIRETYGVETKVVRADFSQPGAAETVFAATEGLDMGFMSYVACLHSFGKIQDTPWEKHEAMINVNVVTFLKCFHHYMRIFAAQDRGAVINVSSMTGISSSPWNGQYGAGKAFILKMTEAVACECEGTGVDVEVITLGTTLTPSLLSNLPGGPQGEAVMKIALTPEECVDEAFEKLGKELSVIAGQRNKDSVHDWKANHTEDEYIRYMGSFYRD
# B4: Collinsella aerofaciens 7β-HSDH mutant G39D R40L, SEQ ID NO:38 (parent SEQ ID NO:2) (Collinsella aerofaciens ATCC 25986; G39D/R40L) (protein)
# chain: MNLREKYGEWGLILGATEGVGKAFCEKIAAGGMNVVMVDLREEKLNVLAGEIRETYGVETKVVRADFSQPGAAETVFAATEGLDMGFMSYVACLHSFGKIQDTPWEKHEAMINVNVVTFLKCFHHYMRIFAAQDRGAVINVSSMTGISSSPWNGQYGAGKAFILKMTEAVACECEGTGVDVEVITLGTTLTPSLLSNLPGGPQGEAVMKIALTPEECVDEAFEKLGKELSVIAGQRNKDSVHDWKANHTEDEYIRYMGSFYRD
# notes: made in house
# B5: Collinsella aerofaciens 7β-HSDH mutant G39D R40V, SEQ ID NO:40 (parent SEQ ID NO:2) (Collinsella aerofaciens ATCC 25986; G39D/R40V) (protein)
# chain: MNLREKYGEWGLILGATEGVGKAFCEKIAAGGMNVVMVDVREEKLNVLAGEIRETYGVETKVVRADFSQPGAAETVFAATEGLDMGFMSYVACLHSFGKIQDTPWEKHEAMINVNVVTFLKCFHHYMRIFAAQDRGAVINVSSMTGISSSPWNGQYGAGKAFILKMTEAVACECEGTGVDVEVITLGTTLTPSLLSNLPGGPQGEAVMKIALTPEECVDEAFEKLGKELSVIAGQRNKDSVHDWKANHTEDEYIRYMGSFYRD
# notes: made in house
# B6: Collinsella aerofaciens 7β-HSDH mutant G39D R40I, SEQ ID NO:39 (parent SEQ ID NO:2) (Collinsella aerofaciens ATCC 25986; G39D/R40I) (protein)
# chain: MNLREKYGEWGLILGATEGVGKAFCEKIAAGGMNVVMVDIREEKLNVLAGEIRETYGVETKVVRADFSQPGAAETVFAATEGLDMGFMSYVACLHSFGKIQDTPWEKHEAMINVNVVTFLKCFHHYMRIFAAQDRGAVINVSSMTGISSSPWNGQYGAGKAFILKMTEAVACECEGTGVDVEVITLGTTLTPSLLSNLPGGPQGEAVMKIALTPEECVDEAFEKLGKELSVIAGQRNKDSVHDWKANHTEDEYIRYMGSFYRD
# notes: made in house
# B7: Collinsella aerofaciens 7β-HSDH mutant G39D, SEQ ID NO:37 (parent SEQ ID NO:2) (Collinsella aerofaciens ATCC 25986; G39D) (protein)
# chain: MNLREKYGEWGLILGATEGVGKAFCEKIAAGGMNVVMVDRREEKLNVLAGEIRETYGVETKVVRADFSQPGAAETVFAATEGLDMGFMSYVACLHSFGKIQDTPWEKHEAMINVNVVTFLKCFHHYMRIFAAQDRGAVINVSSMTGISSSPWNGQYGAGKAFILKMTEAVACECEGTGVDVEVITLGTTLTPSLLSNLPGGPQGEAVMKIALTPEECVDEAFEKLGKELSVIAGQRNKDSVHDWKANHTEDEYIRYMGSFYRD
# notes: made in house
# Legend:
# 7β-HSDH = 7β-HSDH (Collinsella aerofaciens, UniProt A4ECA9); test: Photometric identification of 7β-HSDH activity (production example 1); assay type: biochemical, Collinsella aerofaciens ATCC 25986; conditions: 0.1 mM test substance, potassium phosphate buffer 50 mM pH 8, in the presence of NADP+ or NADPH
# Description: For identification of 7β-HSDH activity, the activity was investigated by a photometric method. In a 1 ml cuvette, enzyme and 0.1 mM of test substance (UDCA) were mixed in potassium phosphate buffer (50 mM, pH8).
# [1] = biological target: 7β-HSDH from Collinsella aerofaciens DSM 3979 (Collinsella aerofaciens, UniProt A4ECA9); assay type: biochemical
# [2] = Kinetic constants of FDH (mutant D221G) at pH 6, 7 and 8; assay type: biochemical, Mycobacterium vaccae
# [3] = substrate: NC(=O)C1=CN([C@@H]2O[C@H](COP(=O)(O)OP(=O)(O)OC[C@H]3O[C@@H](n4cnc5c(N)ncnc54)[C@H](OP(=O)(O)O)[C@@H]3O)[C@@H](O)[C@H]2O)C=CC1; test: purified protein, by the assay type; conditions: other: pH 8, 25° C.
# [4] = substrate: NC(=O)c1ccc[n+]([C@@H]2O[C@H](COP(=O)([O-])OP(=O)(O)OC[C@H]3O[C@@H](n4cnc5c(N)ncnc54)[C@H](OP(=O)(O)O)[C@@H]3O)[C@@H](O)[C@H]2O)c1; test: purified protein, by the assay type; conditions: other: pH 8, 25° C.
# [5] = Photometric activity of 7β-HSDH variants with NADPH or NADH (production example 7); assay type: biochemical, Collinsella aerofaciens; conditions: for Specific activity NADH / Volumetric activity NADH: cofactor NADH; for Specific activity NADPH / Volumetric activity NADPH: cofactor NADPH
# [6] = substrate: C[C@H](CCC(=O)O)[C@H]1CC[C@H]2[C@@H]3C(=O)C[C@@H]4CC(=O)CC[C@]4(C)[C@H]3CC(=O)[C@]12C; test: Enzyme-kinetic investigation of the 7β-HSDH mutants; assay type: biochemical, Collinsella aerofaciens; conditions: other: 0.5 mM NADH
# Source text: Altogether, the 7β-HSDH mutants G39D, G39D/R40L, G39D/R40I and G39D/R40V were produced. The G39D mutant is produced by Quickchange mutagenesis, and the other mutants are produced by the PCR method of Sanchis et al. (Sanchis J, Fernández L, Carballeira J D, Drone J, Gumulya Y, Höbenreich H, Kahakeaw D, Kille S, Lohmer R, Peyralans J J, Podtetenieff J, Prasad S, Soni P, Taglieber A, Wu S, Zilly F E, Reetz M T. Improved PCR method for the creation of saturation mutagenesis libraries in directed evolution: application to difficult-to-amplify templates. Appl Microbiol Biotechnol. 2008 November; 81(2): 387-97). The following primers were used for the mutagenesis, with the bases shown in italics coding in each case for the exchanged amino acid:
# The mutants prepared are evaluated by means of enzyme-kinetic investigations, the results of which are shown as graphs in FIG. 11. […] The need to increase the cofactor concentration in the enzyme-kinetic investigation of the 7β-HSDH mutants is due to the increased semisaturation concentrations for the cofactor NADH in the mutants. From the plots of substrate concentration versus specific enzyme activity, the characteristic curves of Michaelis-Menten kinetics can be seen for the 7β-HSDH mutants, whereas the curve of Michaelis-Menten kinetics with substrate inhibition can be seen from the plot for the unmodified wild-type 7β-HSDH. Accordingly, the classical Michaelis-Menten model (equation 1) was used for evaluating the measurement series of the 7β-HSDH mutants and the Michaelis-Menten model with substrate inhibition was used for the measurement series of the unmodified wild-type 7β-HSDH (equation 2).
# [formula] • EAx: specific enzyme activity, U mg^−1=μmol min^−1 mg^−1 • vmax: maximum specific enzyme activity, U mg^−1=μmol min^−1 mg^−1 • cS: substrate or cofactor concentration, mol L^−1 • Km: semisaturation concentration, mol L^−1
# The following table gives enzyme-kinetic parameters of the unmodified wild-type 7β-HSDH and the mutants thereof with altered cofactor specificity. NADPH is used as cofactor for the wild type, whereas NADH is used as cofactor for the mutants.
molecule,measurement,setting,value
"C[C@H](CCC(=O)O)[C@H]1CC[C@H]2[C@@H]3[C@H](O)C[C@@H]4C[C@H](O)CC[C@]4(C)[C@H]3C[C@H](O)[C@]12C [CA, Cholic acid]",activity of 7β-HSDH against the test substance,7β-HSDH,no activity; also recorded: not detectable
"C[C@H](CCC(=O)O)[C@H]1CC[C@H]2[C@@H]3C(=O)C[C@@H]4C[C@H](O)CC[C@]4(C)[C@H]3CC[C@]12C [7-Keto-LCA, 7-Keto-lithocholic acid]",activity of 7β-HSDH against the test substance,7β-HSDH,35 U/ml
"C[C@H](CCC(=O)O)[C@H]1CC[C@H]2[C@@H]3[C@@H](O)C[C@@H]4C[C@H](O)CC[C@]4(C)[C@H]3CC[C@]12C [UDCA, Ursodeoxycholic acid]",activity of 7β-HSDH against the test substance,7β-HSDH,60 U/ml
same,Vmax,[1],38.17 U/mg protein
same,kcat,[1],1179.39 1 μmol/(μmol × min)
NC(=O)C1=CN([C@@H]2O[C@H](COP(=O)(O)OP(=O)(O)OC[C@H]3O[C@@H](n4cnc5c(N)ncnc54)[C@H](OP(=O)(O)O)[C@@H]3O)[C@@H](O)[C@H]2O)C=CC1 [NADPH],kcat,[1],1033.44 1 μmol/(μmol × min)
NC(=O)c1ccc[n+]([C@@H]2O[C@H](COP(=O)([O-])OP(=O)(O)OC[C@H]3O[C@@H](n4cnc5c(N)ncnc54)[C@H](OP(=O)(O)O)[C@@H]3O)[C@@H](O)[C@H]2O)c1 [NADP^+],kcat,[1],944.95 1 μmol/(μmol × min)
same,Km,[1]; pH 8,5.32 µM
B1,Specific activity,"[2]; pH 6, NAD+",4.6 U × mg^−1
same,Specific activity,"[2]; pH 6, NADP+",1 U × mg^−1
same,Specific activity,"[2]; pH 7, NAD+",5.1 U × mg^−1
same,Specific activity,"[2]; pH 7, NADP+",1.2 U × mg^−1
same,Specific activity,"[2]; pH 8, NAD+",4.7 U × mg^−1
same,Specific activity,"[2]; pH 8, NADP+",1 U × mg^−1
B2,Km,[3],4.50 µM
same,Vmax,[3],33.4 µmol/min/mg
same,kcat,[3],1033.44 μmol/(μmol × min)
same,Km,[4],5.32 µM
same,Vmax,[4],30.6 µmol/min/mg
same,kcat,[4],944.95 μmol/(μmol × min)
B3,Specific activity NADH,[5],0.8 U/mg
same,Volumetric activity NADH,[5],21 U/ml
same,Specific activity NADPH,[5],0 U/mg
same,Volumetric activity NADPH,[5],0 U/ml
B4,Km,[6],560 ± 80 µM
same,Vmax,[6],1.6 µmol/min/mg
B5,Km,[6],880 ± 20 µM
same,Vmax,[6],2.69 µmol/min/mg
B6,Km,[6],920 ± 170 µM
same,Vmax,[6],4.64 µmol/min/mg
B7,Specific activity NADH,[5],0.1 U/mg
same,Volumetric activity NADH,[5],2 U/ml
same,Specific activity NADPH,[5],5.1 U/mg
same,Volumetric activity NADPH,[5],119 U/ml
same,Km,[6],660 ± 120 µM
same,Vmax,[6],2.9 µmol/min/mg
